Data set [1] addresses T1, C-terminal domain of ASPL (ASPL-C, residues 313-553) (human, UniProt Q9BZE9 313-553).
T1 construct: the 26 kDa printed for ASPL-C in the cross-linking experiment fits the chain without GST; The cited crystal structure covers residues 317-499; source: E. coli BL21 DE3 Rosetta2, purified (glutathione-Sepharose 4B, Superdex 75 SEC)
T1 sequence (looked up): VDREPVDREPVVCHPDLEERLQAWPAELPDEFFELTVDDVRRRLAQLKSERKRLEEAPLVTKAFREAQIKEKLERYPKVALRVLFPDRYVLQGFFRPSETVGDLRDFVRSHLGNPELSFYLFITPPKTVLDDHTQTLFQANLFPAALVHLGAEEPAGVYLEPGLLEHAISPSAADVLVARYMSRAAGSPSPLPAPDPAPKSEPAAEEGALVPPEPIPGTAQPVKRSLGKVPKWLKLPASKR
Nature of the data set: SPR; ASPL-C immobilised on CM5 chip by amine coupling (1000 RU); analytes 0.6 to 83 μM in 10 mM HEPES, 150 mM NaCl, 0.005% Tween20, pH 7.4; BIAcore 3000, duplicates; one-site specific binding fit of the response against concentration; no saturation reached. The following applies: both partners purified. For orientation: SPR reads the build-up and loss of mass on a sensor chip optically.

Data set [2] concerns the molecule itself. Nature of the data set: SEC; Superdex 75 increase 10/300 of Ni-NTA purified Trx-ICH_(GLUT4). Background: Size exclusion chromatography separates by hydrodynamic size, large species first.

B1: Thioredoxin fused C-terminally with human GLUT4 intracellular helical bundle (residues 225-271, I232C/K264C) (domain or fragment, UniProt P14672 225-271, looked up)
chain: ESPRYLYCIQNLEGPARKSLKRLTGWADVSGVLAELKDECRKLERER
notes: human GLUT4 intracellular helical bundle (ICH) between TM6 and TM7, residues 225-271, with I232C and K264C to form a stabilising disulphide bond; Synthetic gene (GenScript) in pET24a; 18 kDa monomer; a 36 kDa peak was also seen on SEC; also called Trx-ICH_(GLUT4); ICH_(GLUT4); source: E. coli TUNER (DE3), purified (Ni-NTA, Superdex 75 SEC; monomer peak used); not shown: Trx (thioredoxin), …
As usually defined, the Kd is the free concentration of one partner at which half of the binding sites on the other are occupied at equilibrium, for simple one-to-one binding. A word on the stoichiometry N: it is the number of molecules, sites or subunits per partner or assembly. As for B1, the Kd in data set [1] was 68 µM. Besides, the “stoichiometry N” value in data set [2] stood at 2.

The values above are taken from article PMC10626271 (FEBS Open Bio, 2023).
